# Measurements taken from paper PMC6555819, “Comprehensive study of nuclear receptor DNA binding provides a revised framework for understanding receptor specificity”.
# B1: NRC3_wobSeed121_DR5_A6C_o1 (dsDNA)
# DNA 1: GCCAACCTAGGTCACCGGAAGGTCAAAGTCCGCATGGCGATTGACAGCGTAGAATGAAGG
# DNA 2: CCTTCATTCTACGCTGTCAATCGCCATGCGGACTTTGACCTTCCGGTGACCTAGGTTGGC
# B2: NRC3_wobSeed49_DR2_G25C_o1 (dsDNA)
# DNA 1: GCCAAACTAGGTCAAGAGGTCAAACTCCGCTTCCCGGCGATTGACAGCGTAGAATGAAGG
# DNA 2: CCTTCATTCTACGCTGTCAATCGCCGGGAAGCGGAGTTTGACCTCTTGACCTAGTTTGGC
# B3: NRC3_wobSeed25_DR1_G24C_o1 (dsDNA)
# DNA 1: GCCAAACTAGGTCAAAGGTCAAACTCGAGCCAACCAGCGATTGACAGCGTAGAATGAAGG
# DNA 2: CCTTCATTCTACGCTGTCAATCGCTGGTTGGCTCGAGTTTGACCTTTGACCTAGTTTGGC
# B4: NRC3_random_hg19_99_o1 (dsDNA)
# DNA 1: GCTGTTCTTACTGAGGCGTTTGCTGCCTAGCTCCCTGCGATTGACAGCGTAGAATGAAGG
# DNA 2: CCTTCATTCTACGCTGTCAATCGCAGGGAGCTAGGCAGCAAACGCCTCAGTAAGAACAGC
# B5: NRC3_wobSeed64_DR2_A9C_o1 (dsDNA)
# DNA 1: GCTAGCCTCGGTCATTGGGCCAGTATAGTACGCATCGCGATTGACAGCGTAGAATGAAGG
# DNA 2: CCTTCATTCTACGCTGTCAATCGCGATGCGTACTATACTGGCCCAATGACCGAGGCTAGC
# B6: NRC3_random_hg19_483_o1 (dsDNA)
# DNA 1: GCGAATGGAATAGAGTGGAATGCAGTGGAATGGAAAGCGATTGACAGCGTAGAATGAAGG
# DNA 2: CCTTCATTCTACGCTGTCAATCGCTTTCCATTCCACTGCATTCCACTCTATTCCATTCGC
# B7: NRC3_wobSeed40_DR1_G10A_o1 (dsDNA)
# DNA 1: GCTAGCCTAAGTCATGGGCCAGTATACCACGCGAACGCGATTGACAGCGTAGAATGAAGG
# DNA 2: CCTTCATTCTACGCTGTCAATCGCGTTCGCGTGGTATACTGGCCCATGACTTAGGCTAGC
# B8: NRC3_wobSeed101_DR4_A14T_o1 (dsDNA)
# DNA 1: GCCCTTACGGGTCTCTCCAGGTTATAGCATCGGAGTGCGATTGACAGCGTAGAATGAAGG
# DNA 2: CCTTCATTCTACGCTGTCAATCGCACTCCGATGCTATAACCTGGAGAGACCCGTAAGGGC
# B9: NRC3_random_hg19_172_o1 (dsDNA)
# DNA 1: GCCAGTACTGTTGCTAGAACTACAACCTGTATGCTGGCGATTGACAGCGTAGAATGAAGG
# DNA 2: CCTTCATTCTACGCTGTCAATCGCCAGCATACAGGTTGTAGTTCTAGCAACAGTACTGGC
# B10: NRC3_random_hg19_303_o1 (dsDNA)
# DNA 1: GCAAGATCTCTACAATGAATTGTACCAATGCTCCAGGCGATTGACAGCGTAGAATGAAGG
# DNA 2: CCTTCATTCTACGCTGTCAATCGCCTGGAGCATTGGTACAATTCATTGTAGAGATCTTGC
# B11: NRC3_wobSeed133_DR5_A14C_o1 (dsDNA)
# DNA 1: GCCGTCCAAGGTCCATGCTAGGTCAGTGAAAGCATTGCGATTGACAGCGTAGAATGAAGG
# DNA 2: CCTTCATTCTACGCTGTCAATCGCAATGCTTTCACTGACCTAGCATGGACCTTGGACGGC
# B12: NRC3_wobSeed14_DR0_G11T_o1 (dsDNA)
# DNA 1: GCCCTGCTAGTTCATGGTCAGCTAATCTACAGTATGGCGATTGACAGCGTAGAATGAAGG
# DNA 2: CCTTCATTCTACGCTGTCAATCGCCATACTGTAGATTAGCTGACCATGAACTAGCAGGGC
# B13: NRC3_random_hg19_221_o1 (dsDNA)
# DNA 1: GCCTTGAATCCAGGAGGCAGAGGCTGCAGTGAGCTGGCGATTGACAGCGTAGAATGAAGG
# DNA 2: CCTTCATTCTACGCTGTCAATCGCCAGCTCACTGCAGCCTCTGCCTCCTGGATTCAAGGC
# B14: NRC3_random_hg19_330_o1 (dsDNA)
# DNA 1: GCAGACTTTGCATCCTGCTGAGAACTGCTCTGAGAGGCGATTGACAGCGTAGAATGAAGG
# DNA 2: CCTTCATTCTACGCTGTCAATCGCCTCTCAGAGCAGTTCTCAGCAGGATGCAAAGTCTGC
# B15: NRC3_wobSeed99_DR4_G20A_o1 (dsDNA)
# DNA 1: GCTCTCGGAGGACACGAAAAGTCAGAGCTCGACATCGCGATTGACAGCGTAGAATGAAGG
# DNA 2: CCTTCATTCTACGCTGTCAATCGCGATGTCGAGCTCTGACTTTTCGTGTCCTCCGAGAGC
# B16: NRC3_wobSeed90_DR3_C13A_o1 (dsDNA)
# DNA 1: GCCATACAGGGTAAGCTAGGCCAGAGTAGGGACGGCGCGATTGACAGCGTAGAATGAAGG
# DNA 2: CCTTCATTCTACGCTGTCAATCGCGCCGTCCCTACTCTGGCCTAGCTTACCCTGTATGGC
# B17: NRC3_random_hg19_473_o1 (dsDNA)
# DNA 1: GCGCTACTCGGGAGGCTGAGGCAGGAGAATGGTGTGGCGATTGACAGCGTAGAATGAAGG
# DNA 2: CCTTCATTCTACGCTGTCAATCGCCACACCATTCTCCTGCCTCAGCCTCCCGAGTAGCGC
# B18: NRC3_random_hg19_200_o1 (dsDNA)
# DNA 1: GCGCAGGAGAATCAGGCAGGGAGGTTGCAGTGAGCCGCGATTGACAGCGTAGAATGAAGG
# DNA 2: CCTTCATTCTACGCTGTCAATCGCGGCTCACTGCAACCTCCCTGCCTGATTCTCCTGCGC
# B19: NRC3_random_hg19_167_o1 (dsDNA)
# DNA 1: GCTTTGAAGACACTGAAGGAGTGAGCCATTTGGATCGCGATTGACAGCGTAGAATGAAGG
# DNA 2: CCTTCATTCTACGCTGTCAATCGCGATCCAAATGGCTCACTCCTTCAGTGTCTTCAAAGC
# B20: NRC3_random_hg19_367_o1 (dsDNA)
# DNA 1: GCATCTGTGTAACCAGCACCACAGTTAAGATACAGAGCGATTGACAGCGTAGAATGAAGG
# DNA 2: CCTTCATTCTACGCTGTCAATCGCTCTGTATCTTAACTGTGGTGCTGGTTACACAGATGC
# B21: NRC3_random_hg19_44_o1 (dsDNA)
# DNA 1: GCATTTGAGATCTCAGTTTCTGCATACTGAATCACCGCGATTGACAGCGTAGAATGAAGG
# DNA 2: CCTTCATTCTACGCTGTCAATCGCGGTGATTCAGTATGCAGAAACTGAGATCTCAAATGC
# B22: NRC3_wobSeed44_DR1_A14T_o1 (dsDNA)
# DNA 1: GCTGAATGAGGTTTAAGATCAGGGAACGTGGCGTCGGCGATTGACAGCGTAGAATGAAGG
# DNA 2: CCTTCATTCTACGCTGTCAATCGCCGACGCCACGTTCCCTGATCTTAAACCTCATTCAGC
# B23: NRC3_wobSeed15_DR0_G10T_o1 (dsDNA)
# DNA 1: GCCGAACTATGTCAAGGACAGTGAATCTCCGCACGCGCGATTGACAGCGTAGAATGAAGG
# DNA 2: CCTTCATTCTACGCTGTCAATCGCGCGTGCGGAGATTCACTGTCCTTGACATAGTTCGGC
# B24: NRC3_wobSeed61_DR2_G11C_o1 (dsDNA)
# DNA 1: GCCGTCCAAGCTCAGCAGGTCAGTGAAAGCGACGTGGCGATTGACAGCGTAGAATGAAGG
# DNA 2: CCTTCATTCTACGCTGTCAATCGCCACGTCGCTTTCACTGACCTGCTGAGCTTGGACGGC
# B25: NRC3_random_hg19_326_o1 (dsDNA)
# DNA 1: GCATCAGGTCTGCACCTGCAGATGGCGAGGGTTGGCGCGATTGACAGCGTAGAATGAAGG
# DNA 2: CCTTCATTCTACGCTGTCAATCGCGCCAACCCTCGCCATCTGCAGGTGCAGACCTGATGC
# B26: NRC3_wobSeed134_DR5_A14G_o1 (dsDNA)
# DNA 1: GCGCTGCTAGGTCGACTGATGGTCAGCTAAAGCTCGGCGATTGACAGCGTAGAATGAAGG
# DNA 2: CCTTCATTCTACGCTGTCAATCGCCGAGCTTTAGCTGACCATCAGTCGACCTAGCAGCGC
# B27: NRC3_wobSeed122_DR5_A20T_o1 (dsDNA)
# DNA 1: GCGCTAGTTGGTCAGTAAATGGTCACACACCGGTCGGCGATTGACAGCGTAGAATGAAGG
# DNA 2: CCTTCATTCTACGCTGTCAATCGCCGACCGGTGTGTGACCATTTACTGACCAACTAGCGC
# B28: NRC3_random_hg19_239_o1 (dsDNA)
# DNA 1: GCATACATAAGGTGATTTGGCTACATGTATAGACAGGCGATTGACAGCGTAGAATGAAGG
# DNA 2: CCTTCATTCTACGCTGTCAATCGCCTGTCTATACATGTAGCCAAATCACCTTATGTATGC
# B29: NRC3_wobSeed38_DR1_G11T_o1 (dsDNA)
# DNA 1: GCCCTGCTAGTTCAATGGTCAGCTAAAGCAGCTCGCGCGATTGACAGCGTAGAATGAAGG
# DNA 2: CCTTCATTCTACGCTGTCAATCGCGCGAGCTGCTTTAGCTGACCATTGAACTAGCAGGGC
# B30: NRC3_wobSeed38_DR1_A9C_o1 (dsDNA)
# DNA 1: GCCCTGCTCGGTCAATGGTCAGCTAAAGCAGCTCGCGCGATTGACAGCGTAGAATGAAGG
# DNA 2: CCTTCATTCTACGCTGTCAATCGCGCGAGCTGCTTTAGCTGACCATTGACCGAGCAGGGC
# B31: NRC3_random_hg19_188_o1 (dsDNA)
# DNA 1: GCGCTAGGATTACAGGCACAAGCCACCGTGCCCAGCGCGATTGACAGCGTAGAATGAAGG
# DNA 2: CCTTCATTCTACGCTGTCAATCGCGCTGGGCACGGTGGCTTGTGCCTGTAATCCTAGCGC
# B32: NRC3_wobSeed47_DR1_G11C_o1 (dsDNA)
# DNA 1: GCGGAACGAGCGCAAAGTTGATAGCATCTGTCGACGGCGATTGACAGCGTAGAATGAAGG
# DNA 2: CCTTCATTCTACGCTGTCAATCGCCGTCGACAGATGCTATCAACTTTGCGCTCGTTCCGC
# Biological target: RARg:RXRa (Homo sapiens, UniProt P13631;P19793 full;full)
# Experiment: no ligand; PBM; 270 nM : 90 nM RXRa; PBS pH 7.4, 2% milk, 0.02% Triton X-100, 1 mM DTT, BSA, 0.4 mg/ml salmon testes DNA
# Conditions: tags: His kept;His cleaved; copies: 1;1; label: surface-attached array probe
# Summary of the method: (§1)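 Random background probes are the reference for binding z-scores. These scores derive from regression-normalized fluorescence on custom Agilent 4×180K protein-binding microarrays incubated 1 h with ligand-free nuclear receptor dimers. Binding was detected with antibodies against each partner (one per run).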
# Chain of RARg:RXRa (P13631 whole entry, chain 1 of 2): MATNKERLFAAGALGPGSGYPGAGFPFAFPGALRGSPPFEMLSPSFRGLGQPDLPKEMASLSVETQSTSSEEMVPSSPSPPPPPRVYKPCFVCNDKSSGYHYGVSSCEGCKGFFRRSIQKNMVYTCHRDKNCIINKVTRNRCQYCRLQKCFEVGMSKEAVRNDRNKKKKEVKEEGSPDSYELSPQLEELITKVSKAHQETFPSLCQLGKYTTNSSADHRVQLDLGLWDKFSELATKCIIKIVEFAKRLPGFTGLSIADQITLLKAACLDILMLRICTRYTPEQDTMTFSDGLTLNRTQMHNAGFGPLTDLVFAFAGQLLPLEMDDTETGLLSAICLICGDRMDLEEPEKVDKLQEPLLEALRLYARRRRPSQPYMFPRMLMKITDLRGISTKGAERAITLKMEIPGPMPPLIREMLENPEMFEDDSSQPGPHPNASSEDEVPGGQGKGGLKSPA
# Chain of RARg:RXRa (P19793 whole entry, chain 2 of 2): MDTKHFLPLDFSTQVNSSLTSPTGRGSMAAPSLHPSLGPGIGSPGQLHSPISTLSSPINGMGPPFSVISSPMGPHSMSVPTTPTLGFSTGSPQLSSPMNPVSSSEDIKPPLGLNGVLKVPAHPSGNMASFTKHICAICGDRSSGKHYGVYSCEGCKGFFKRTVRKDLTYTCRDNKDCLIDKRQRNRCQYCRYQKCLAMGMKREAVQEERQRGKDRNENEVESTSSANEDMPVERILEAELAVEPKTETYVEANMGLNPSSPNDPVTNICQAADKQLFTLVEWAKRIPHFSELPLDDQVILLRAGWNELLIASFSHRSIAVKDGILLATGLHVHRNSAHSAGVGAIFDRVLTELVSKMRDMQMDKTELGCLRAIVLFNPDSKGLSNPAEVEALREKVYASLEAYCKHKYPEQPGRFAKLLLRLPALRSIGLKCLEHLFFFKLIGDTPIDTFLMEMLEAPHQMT
row,Binder,binding signal
1,B1,8.94 PBM z-score against 500 random probes
2,B2,8.44 PBM z-score against 500 random probes
3,B3,9.32 PBM z-score against 500 random probes

# Biological target: PPARa:RXRa (Homo sapiens, UniProt Q07869;P19793 full;full)
# Experiment: as above
# Conditions: tags: GST kept;His cleaved; copies: 1;1; label: surface-attached array probe
# Summary of the method: as §1
# Chain of PPARa:RXRa (Q07869 whole entry, chain 1 of 2): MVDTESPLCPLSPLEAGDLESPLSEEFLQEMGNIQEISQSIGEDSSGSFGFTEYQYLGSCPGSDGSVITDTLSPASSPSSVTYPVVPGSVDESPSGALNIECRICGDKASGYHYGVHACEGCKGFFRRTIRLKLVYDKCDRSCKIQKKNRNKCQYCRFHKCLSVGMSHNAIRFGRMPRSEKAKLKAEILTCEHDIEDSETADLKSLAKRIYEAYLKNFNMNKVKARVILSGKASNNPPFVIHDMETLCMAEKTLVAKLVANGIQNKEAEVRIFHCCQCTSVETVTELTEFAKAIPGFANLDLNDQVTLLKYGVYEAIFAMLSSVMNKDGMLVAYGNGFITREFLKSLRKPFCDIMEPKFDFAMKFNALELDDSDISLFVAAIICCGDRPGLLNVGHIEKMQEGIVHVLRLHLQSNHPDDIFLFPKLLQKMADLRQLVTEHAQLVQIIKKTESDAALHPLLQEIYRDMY
# Chain of PPARa:RXRa (P19793 whole entry, chain 2 of 2): as the sequence (P19793 whole entry, chain 2 of 2) above
row,Binder,binding signal
1,B4,-0.37 PBM z-score against 500 random probes
2,B5,0.15 PBM z-score against 500 random probes
3,B6,-0.61 PBM z-score against 500 random probes
4,B7,-0.06 PBM z-score against 500 random probes
5,B8,0.07 PBM z-score against 500 random probes
6,B9,-0.42 PBM z-score against 500 random probes
7,B10,-0.05 PBM z-score against 500 random probes
8,B11,0.33 PBM z-score against 500 random probes
9,B12,0.23 PBM z-score against 500 random probes
10,B13,-0.29 PBM z-score against 500 random probes
11,B14,-1.18 PBM z-score against 500 random probes
12,B15,0.36 PBM z-score against 500 random probes
13,B16,-0.35 PBM z-score against 500 random probes
14,B17,-1.24 PBM z-score against 500 random probes
15,B18,-0.47 PBM z-score against 500 random probes
16,B19,-0.13 PBM z-score against 500 random probes
17,B20,-0.28 PBM z-score against 500 random probes
18,B21,-0.2 PBM z-score against 500 random probes
19,B22,0.18 PBM z-score against 500 random probes
20,B23,0.36 PBM z-score against 500 random probes
21,B24,0.35 PBM z-score against 500 random probes
22,B25,-0.67 PBM z-score against 500 random probes
23,B26,0.01 PBM z-score against 500 random probes
24,B27,0.26 PBM z-score against 500 random probes
25,B28,0.32 PBM z-score against 500 random probes
26,B29,0.22 PBM z-score against 500 random probes
27,B30,0.02 PBM z-score against 500 random probes
28,B31,-0.72 PBM z-score against 500 random probes
29,B32,0.32 PBM z-score against 500 random probes
